Target: T1, endogenous Smad4 of 293T cells (UniProt Q13485 1-552)
T1 sequence (looked up): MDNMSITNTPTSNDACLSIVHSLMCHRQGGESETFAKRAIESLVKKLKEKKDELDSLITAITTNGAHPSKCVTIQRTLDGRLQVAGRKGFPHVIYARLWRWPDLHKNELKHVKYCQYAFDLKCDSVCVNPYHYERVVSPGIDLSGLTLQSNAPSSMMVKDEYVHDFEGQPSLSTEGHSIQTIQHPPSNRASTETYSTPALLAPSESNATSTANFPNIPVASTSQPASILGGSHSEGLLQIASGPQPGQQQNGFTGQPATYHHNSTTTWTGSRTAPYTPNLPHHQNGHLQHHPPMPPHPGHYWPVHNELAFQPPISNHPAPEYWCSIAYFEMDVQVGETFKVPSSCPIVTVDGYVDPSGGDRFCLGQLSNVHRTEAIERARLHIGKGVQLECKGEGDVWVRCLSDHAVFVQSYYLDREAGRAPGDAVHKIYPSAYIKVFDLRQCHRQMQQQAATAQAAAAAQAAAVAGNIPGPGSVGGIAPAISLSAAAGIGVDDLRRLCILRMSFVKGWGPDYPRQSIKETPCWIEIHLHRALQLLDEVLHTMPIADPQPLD
Test: co-immunoprecipitation: anti-c-Myc IP of 293T whole cell extract, immunoblot with anti-Smad4
Description: (a) An interaction between c-Myc-tagged PDLIM2 and an endogenous Smad transcription factors; 293T cells were transfected with or without a c-Myc-tagged PDLIM2 expression plasmid (c-Myc PDLIM2) and treated to obtain whole cell extracts, which were immunoprecipitated (IP) with anti-c-Myc antibody, and immunoblotted (IB) with anti-Smad2, 3 or 4 antibody. (b) Luciferase activity in mouse embryonic fibroblasts; with or without a plasmid that encodes PDLIM2, the cells were transfected with a plasmid that encodes a TARE luciferase reporter (pTARE-Luc), after which the cells were stimulated with human TGFβ (10 ng/ml) for 6 hours and assayed.
All lysis buffers used for immunoblot analysis contained a proteinase inhibitor cocktail (Roche). Cytoplasmic and nuclear extracts were prepared as follows. Cells were lysed on ice for 10 min with hypotonic buffer (20 mM HEPES pH 8.0, 10 mM KCl, 1 mM MgCl₂, 0.1% Triton X-100, 20% glycerol). After centrifugation (5,000 rpm, 1 min), supernatants were collected and used as cytoplasmic fractions. The pellets were next lysed on ice for 20 min after brief vortexing with hypertonic buffer (20 mM HEPES pH 8.0, 1 mM EDTA, 20% glycerol, 0.1% Triton X-100, 400 mM NaCl). After centrifugation (15,000 rpm, 5 min), supernatants were collected and used as nuclear fractions. […]

binding result: no binding
B1: c-Myc-tagged PDLIM2 (murine Pdlim2 coding region in pCMV-Myc) (enzyme)
chain: MALTVDVAGPAPWGFRISGGRDFHTPIIVTKVTERGKAEAADLRPGDIIVAINGQSAENMLHAEAQSKIRQSASPLRLQLDRSQTASPGQTNGEGSLEVLATRFQGSLRTHRDSQSSQRSACFSPVSLSPRPCSPFSTPPPTSPVALSKEDMIGCSFQSLTHSPGLAAAHHLTYPGHPTSQQAGHSSPSDSAVRVLLHSPGRPSSPRFSSLDLEEDSEVFKMLQENRQGRAAPRQSSSFRLLQEALEAEERGGTPAFVPSSLSSQASLPTSRALATPPKLHTCEKCSVNISNQAVRIQEGRYRHPGCYTCADCGLNLKMRGHFWVGNELYCEKHARQRYSMPGTLNSRA
notes: Expressed in 293T cells and tested in whole cell extracts; also called c-Myc PDLIM2; PDZ and LIM domain protein-2; not shown: c-Myc tag from vector pCMV-Myc (Clontech)
